Measured values published in patent publication EP4786489A1, “IL-22 MUTANT, PREPARATION METHOD THEREFOR, AND USE THEREOF” (Nanjing Novoacine Biotechnology Co., Ltd., priority 2023, dated 2025).

T1: heterodimeric receptor complex (IL-22Rα/IL-10Rβ) (human, UniProt Q8N6P7 16-574; Q08334 20-325)
T1 sequence (looked up) 1: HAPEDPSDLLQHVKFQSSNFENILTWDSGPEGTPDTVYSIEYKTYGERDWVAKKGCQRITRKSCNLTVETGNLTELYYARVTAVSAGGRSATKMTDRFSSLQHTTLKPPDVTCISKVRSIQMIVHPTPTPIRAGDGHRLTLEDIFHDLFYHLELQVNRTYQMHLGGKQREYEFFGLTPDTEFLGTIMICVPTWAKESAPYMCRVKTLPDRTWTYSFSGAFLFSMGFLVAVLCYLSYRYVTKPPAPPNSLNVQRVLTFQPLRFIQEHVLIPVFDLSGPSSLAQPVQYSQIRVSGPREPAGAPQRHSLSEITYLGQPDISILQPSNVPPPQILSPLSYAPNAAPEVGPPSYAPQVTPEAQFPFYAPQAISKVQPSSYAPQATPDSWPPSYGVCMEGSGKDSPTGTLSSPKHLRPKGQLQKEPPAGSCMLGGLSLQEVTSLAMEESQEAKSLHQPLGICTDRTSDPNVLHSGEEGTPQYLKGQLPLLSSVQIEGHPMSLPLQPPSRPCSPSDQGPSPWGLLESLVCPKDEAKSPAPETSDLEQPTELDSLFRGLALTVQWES
T1 sequence (looked up) 2: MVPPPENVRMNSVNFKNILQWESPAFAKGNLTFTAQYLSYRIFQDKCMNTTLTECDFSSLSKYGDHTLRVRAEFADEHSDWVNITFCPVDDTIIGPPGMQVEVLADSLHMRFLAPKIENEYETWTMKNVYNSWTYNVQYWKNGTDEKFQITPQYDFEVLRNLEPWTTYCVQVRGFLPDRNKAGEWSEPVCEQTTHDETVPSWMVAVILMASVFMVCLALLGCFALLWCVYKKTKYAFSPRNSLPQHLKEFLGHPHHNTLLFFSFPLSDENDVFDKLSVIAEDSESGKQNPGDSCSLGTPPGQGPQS


Experiments:
Assay in all cases: cell-based or functional assay
[1] = molecular target: heterodimeric receptor complex (IL-22Rα/IL-10Rβ) (human) (UniProt Q8N6P7)
[2] = molecular target: T1, heterodimeric receptor complex …
[3] = molecular target: T1, heterodimeric receptor complex …; remark: listed apart in the source
[4] = molecular target: T1, heterodimeric receptor complex …; remark: listed apart in the source
[5] = molecular target: T1, heterodimeric receptor complex …; remark: listed apart in the source
[6] = molecular target: T1, heterodimeric receptor complex …; remark: listed apart in the source

Row | Molecule | STAT1/STAT3 EC50 ratio (higher is better); FACS, HT29 cells [4] | STAT1 Activation EC50 (nM); pSTAT1 FACS, HT29 cells [4] | STAT3 Activation EC50 (nM); pSTAT3 FACS, HT29 cells [4] | other results
1 | IL-22-Fc (Fc fusion) | – | – | – | EC50 for STAT1 Activation (nM); pSTAT1 FACS, HT-29 cells [1]: 49.9 nM; EC50 for STAT3 Activation (nM); pSTAT3 FACS, HT-29 cells [1]: 12.9 nM; HaCaT: HT29 ratio (higher is better); p-STAT3 EC50, FACS [1]: 5.8; STAT1/STAT3 EC50 ratio (higher is better); FACS, HT29 cells [1]: 3.2; STAT1/STAT3 EC50 ratio (higher is better); FACS, HT-29 cells [1]: 3.9; STAT1 Activation EC50 (nM); pSTAT1 FACS, HT29 cells [1]: 12.6 nM; STAT3 Activation EC50 (nM); pSTAT3 FACS, HT29 cells [1]: 3.9 nM; p-STAT3 EC50 (nM), HaCaT; FACS [1]: 22.7 nM
2 | hB3-his (ligand) APISSHCRLDKENFQQPYITNRTFMLAKEASLADNNTDVRLIGEKLFHGVSMSERCYLMKQVLNFTLEEVLFPQSDRFQPYMAEVVPFLAALSNALSTCHIEGDDLHIQRNVQKLKDTVKKLGESGEIKAIGELDLLFMSLRNACIHHHHHH | 9.3 | 23 nM | 2.47 nM | STAT1/STAT3 Ratio (higher is better); ELISA, COLO205 cells [2]: 2.34; STAT1 Activation EC50 (nM); p-STAT1 ELISA, COLO205 cells [2]: 17.4 nM; STAT1 Activation, Fold change relative to wt IL-22; p-STAT1 ELISA, COLO205 cells [2]: 18.5 fold; STAT3 Activation EC50 (nM); p-STAT3 ELISA, COLO205 cells [2]: 0.525 nM; STAT3 Activation, Fold change relative to wt IL-22; p-STAT3 ELISA, COLO205 cells [2]: 7.92 fold; EC50 for STAT1 Activation (nM); pSTAT1 FACS, HT-29 cells [3]: 279 nM; EC50 for STAT3 Activation (nM); pSTAT3 FACS, HT-29 cells [3]: 4.13 nM; STAT1/STAT3 EC50 ratio (higher is better); FACS, HT-29 cells [3]: 67.5
3 | wt IL-22 (ligand) APISSHCRLDKSNFQQPYITNRTFMLAKEASLADNNTDVRLIGEKLFHGVSMSERCYLMKQVLNFTLEEVLFPQSDRFQPYMQEVVPFLARLSNRLSTCHIEGDDLHIQRNVQKLKDTVKKLGESGEIKAIGELDLLFMSLRNACI | – | – | – | EC50 fold change of the test candidate relative to wt IL-22; STAT3 reporter gene assay, COLO205/SIE cells (Assay1) [5]: 1 fold; EC50 fold change of the test candidate relative to wt IL-22; STAT3 reporter gene assay, COLO205/SIE cells (Assay2) [5]: 1 fold; EC50 for STAT3 Activation (nM); STAT3 reporter gene assay, COLO205/SIE cells (Assay1) [5]: 0.00529 nM; EC50 for STAT3 Activation (nM); STAT3 reporter gene assay, COLO205/SIE cells (Assay2) [5]: 0.00303 nM; STAT1/STAT3 Ratio (higher is better); ELISA, COLO205 cells [2]: 1; STAT1 Activation EC50 (nM); p-STAT1 ELISA, COLO205 cells [2]: 0.939 nM; STAT1 Activation, Fold change relative to wt IL-22; p-STAT1 ELISA, COLO205 cells [2]: 1 fold; STAT3 Activation EC50 (nM); p-STAT3 ELISA, COLO205 cells [2]: 0.0663 nM; STAT3 Activation, Fold change relative to wt IL-22; p-STAT3 ELISA, COLO205 cells [2]: 1 fold
4 | 80K-PEG-IL22-P50C (ligand, Cys at position 17 (SEQ ID NO:1 numbering) conjugated to 80 kDa PEG-maleimide (thioether linkage)) APISSHCRLDKSNFQQCYITNRTFMLAKEASLADNNTDVRLIGEKLFHGVSMSERCYLMKQVLNFTLEEVLFPQSDRFQPYMQEVVPFLARLSNRLSTCHIEGDDLHIQRNVQKLKDTVKKLGESGEIKAIGELDLLFMSLRNACI | 3.3 | 62.3 nM | 18.9 nM | –
5 | 80K-PEG-IL22-D109C (ligand, Cys at position 76 (SEQ ID NO:1 numbering) conjugated to 80 kDa PEG-maleimide (thioether linkage)) APISSHCRLDKSNFQQPYITNRTFMLAKEASLADNNTDVRLIGEKLFHGVSMSERCYLMKQVLNFTLEEVLFPQSCRFQPYMQEVVPFLARLSNRLSTCHIEGDDLHIQRNVQKLKDTVKKLGESGEIKAIGELDLLFMSLRNACI | 7.1 | 7 nM | 0.984 nM | –
6 | 60K-PEG-IL22-P50C (ligand, Cys at position 17 (SEQ ID NO:1 numbering) conjugated to 60 kDa PEG-maleimide (thioether linkage)) APISSHCRLDKSNFQQCYITNRTFMLAKEASLADNNTDVRLIGEKLFHGVSMSERCYLMKQVLNFTLEEVLFPQSDRFQPYMQEVVPFLARLSNRLSTCHIEGDDLHIQRNVQKLKDTVKKLGESGEIKAIGELDLLFMSLRNACI | 2.4 | 134 nM | 55.5 nM | –
7 | 60K-PEG-IL22-D109C (ligand, Cys at position 76 (SEQ ID NO:1 numbering) conjugated to 60 kDa PEG-maleimide (thioether linkage)) APISSHCRLDKSNFQQPYITNRTFMLAKEASLADNNTDVRLIGEKLFHGVSMSERCYLMKQVLNFTLEEVLFPQSCRFQPYMQEVVPFLARLSNRLSTCHIEGDDLHIQRNVQKLKDTVKKLGESGEIKAIGELDLLFMSLRNACI | 16.3 | 9.41 nM | 0.577 nM | HaCaT: HT29 ratio (higher is better); p-STAT3 EC50, FACS [6]: 12.9; p-STAT3 EC50 (nM), HaCaT; FACS [6]: 7.44 nM
8 | 60K-PEG-IL22-P120C (ligand, Cys at position 87 (SEQ ID NO:1 numbering) conjugated to 60 kDa PEG-maleimide (thioether linkage)) APISSHCRLDKSNFQQPYITNRTFMLAKEASLADNNTDVRLIGEKLFHGVSMSERCYLMKQVLNFTLEEVLFPQSDRFQPYMQEVVCFLARLSNRLSTCHIEGDDLHIQRNVQKLKDTVKKLGESGEIKAIGELDLLFMSLRNACI | 7.6 | 86.2 nM | 11.4 nM | HaCaT: HT29 ratio (higher is better); p-STAT3 EC50, FACS [6]: 37.7; p-STAT3 EC50 (nM), HaCaT; FACS [6]: 428 nM

Second part, led by results:

Row | STAT1/STAT3 EC50 ratio (higher is better); FACS, HT29 cells [4] | STAT1 Activation EC50 (nM); pSTAT1 FACS, HT29 cells [4] | STAT3 Activation EC50 (nM); pSTAT3 FACS, HT29 cells [4] | Molecule | other results
9 | 7.8 | 369 nM | 47.5 nM | 40K-PEG-IL22-P50C (ligand, Cys at position 17 (SEQ ID NO:1 numbering) conjugated to 40 kDa PEG-maleimide (thioether linkage)) APISSHCRLDKSNFQQCYITNRTFMLAKEASLADNNTDVRLIGEKLFHGVSMSERCYLMKQVLNFTLEEVLFPQSDRFQPYMQEVVPFLARLSNRLSTCHIEGDDLHIQRNVQKLKDTVKKLGESGEIKAIGELDLLFMSLRNACI | –
10 | 29 | 574 nM | 19.8 nM | 80K-PEG-IL22-P120C (ligand, Cys at position 87 (SEQ ID NO:1 numbering) conjugated to 80 kDa PEG-maleimide (thioether linkage)) APISSHCRLDKSNFQQPYITNRTFMLAKEASLADNNTDVRLIGEKLFHGVSMSERCYLMKQVLNFTLEEVLFPQSDRFQPYMQEVVCFLARLSNRLSTCHIEGDDLHIQRNVQKLKDTVKKLGESGEIKAIGELDLLFMSLRNACI | –
11 | 9.1 | 55.3 nM | 6.05 nM | 40K-PEG-IL22-P120C (ligand, Cys at position 87 (SEQ ID NO:1 numbering) conjugated to 40 kDa PEG-maleimide (thioether linkage)) APISSHCRLDKSNFQQPYITNRTFMLAKEASLADNNTDVRLIGEKLFHGVSMSERCYLMKQVLNFTLEEVLFPQSDRFQPYMQEVVCFLARLSNRLSTCHIEGDDLHIQRNVQKLKDTVKKLGESGEIKAIGELDLLFMSLRNACI | –
12 | 31.3 | 10.9 nM | 0.348 nM | 40K-PEG-IL22-D109C (ligand, Cys at position 76 (SEQ ID NO:1 numbering) conjugated to 40 kDa PEG-maleimide (thioether linkage)) APISSHCRLDKSNFQQPYITNRTFMLAKEASLADNNTDVRLIGEKLFHGVSMSERCYLMKQVLNFTLEEVLFPQSCRFQPYMQEVVPFLARLSNRLSTCHIEGDDLHIQRNVQKLKDTVKKLGESGEIKAIGELDLLFMSLRNACI | –
